The data set can be described thus: label from the status in PepcDB records.
“DKIAIIGSRRMSVYTKNCVFSLASMLKNAHLCVVSGGALGVDITASMAAMPNTIGIFANGLDQIYPRTNEKIIKQIYENALALSEYEDDYLPKNYDFLLRNRLVIALSKAVVVAQADIKSGSMQSAKLALELNKPLYVLPQRLGESTATNLLLKENKAKLICDFKEFVSEFASID”: the protein production entry was “failed”.

As for “MTTLQLFESVNAFVWGPPLLALLVGTGIYLTIRLGLLQVVRLPLALRYVFGRDDEHHEEGDVSSFAALCTALAATIGTGNIVGVATAVAAGGPGALFWMWVAAFFGMATKYAEGLLAVKYRVTDANGQMSGGPMYYLERGLGSRMLARAFALCGILVAFFGIGTFAQVNAIKDAASLSLGIPPLATAVVLTTTVALVTLGGLRSIARVAEKVVPFMAVFYIIASCAVLVMHLDRIPDAVMVILHSAFNPQAALGGAAGMTVLTAMRAGVARGVFSNESGLGSAPIAAAAARTKSCVRQGLISMTGTFFDTIVICTMTGLVLVVTGVWNDPQLAGAAMTNAAFAAGLESSLGQYAATLGLILFAFTTILGWNYYGERCTEYLFGVRGILPYRLVFIGLVAAGAFVHLELIWVLADIVNGLMAIPNLIGLLGLSGVIIAETRAFFEADAPSVDAPCGSDADNASGACPRA”, the protein production result is given as “failed”.

As for “MMMTRSWAAGGSAVLLALLLGGTITSAHAQSADLVLCDRIAADPADPDKPADVKGVTEIAPGDVSTAIKYCRVASAGSRRAMYGLGRAYAAGGQTAEALAAYRKAADKGSSAAMVELGVAYATGVGLPKDDAKARQLLERAAAAGNPRGISNLAALGGGASSDPVKTRALLAKGAESNAEAQYQLGMMMADGIGGPKDDAGARALFEKAAGQGHPGALMQMGAFAQAGRGGPKDSDAAKAYYEKAAALGNADAKAALKRSDCPYVLKDKRGNMVTNLCF”, the protein production entry was “failed”.

As to “MTGVIAGPSVLGAVSSGSIESLAELGVILLLFTIGLEMSAERFGEFRRTALIGGTLQICLTVSVVTILTMVLGLSPGKAVFLGFLISLSSTAVVLKVLQDFHETEAPHGQASLAILIFQDVAAVPMILTVPFLGGVVGDPSSALGTLLTAGAVLPWEPCIGKVLVPRLFDVVAATGSREIFLLTVILVCASVTWLTGEVGLSPALGAFLVGSIVANTEYAHRAQGTILPFQEVFLSFFFVSLGMLLDLRFFLDHIYLIVLAVIGVLMIKVVMNSLVGFVMGYSARVVVLLGLVLAQIGEFSFILSETGLRYGLMDRLTFQAFLSVSLITMAITPFLISLSPRISERIVRADLHPRIKNGRVYRRPSVDLRDHLIIIGMGITGRRLADTCEDHGIPYIGLDVNPEAVRRARDEGLNVYYGDGTHLAVLRHFNVPEAAVMVIAIADYRSTVHAIHEARALNEGMKIIARIRGFENTEMLYTAGADVVVSEKREATRRISDEIFSCYSGVCELEE”, the protein production entry is “failed”.

Consider “MKKVSIIIPFKGQTEAELMLPLSSIYNQIGVDLSQLDIHLVNDGGKTIDLSKFDVLADRLEIHYHEIPNGGPGVARQYGIDNSISEYIMFIDADDVLYYVGALWPFYNASNQGHQMIRASYWEQIAGNPYTYTVHGNGDRKAAYGKWYKRSYIEMLGLRFMPDLPIYEDTYFVGLACELATDTCFLEEKVYMWLANPNSITRTVENKFNYQAHIYARENRYWFEMIRKWKPECLEHHHHHH”, for which the protein production result is “failed”.

Consider “MGRCSHGLREGRRGEPVRDPTPLDRAGCSVLPGGAKLYYSMAFKMHVPPRGSGHIEEPRRLDKALKALKKSRLLDMLEKVDPGFQSLRVFETVHDPLYIKGILAELEAALDSYFIDSDTYISPGTQAALEALAASVEQASEHVAEGGKALVLGRPPGHHAGVAGPGLGAPSLGACLVNAAASLAYRLAGRGLKVLILDFDANHGNGTQEILQALPMGDRLFHLDMHQDWRKSFPWTGEPGVTGDGTALNIVLPEGSGDDIVLALIEGLEPLVNESEPDAVVVSMGFDGYSGDSPLTLTKLTSHTFHALGRLASRYPVAAVLETGFGRGLELGLPAFIAGLLGLGNPVQEEAIKSDEEVWREFLETNKEVVEHG”, for which the protein production entry was “failed”.

As to “AQNQDCAFFFPNQEGEQITRNCYTADGKLTNILVYRVDQAYEYPSGMEVVANYTFADAAGKTLNSGQMVARCSDGNFSMSMGDVATFPTALNMMNADVYMMGDLMNYPDAFSNPMNPGDDDEFDDGTLRLYQKGNKNNRAEISVFDREFVTTETVNTPAGAFYCTKVKYEMNIWTPKETIKGYGYEWYAPNIGIVRSEQYNNKKELQSYSVLERIKK”, the protein production result is “not failed”.

Take “DDFVSLGTSGWHARVVSTVSDPSEVRQFALPDGGILRIASVLSVGGTADWARSVLLPGVSAKEADALMLQRPRLATGLLSLPSIQGESFPVRSHSVGGCILGMRGNQDPLTLYTAVIEGICMTLAHDIKPGGILPATGGGARSVPWMRILASVTNRNIHVTVSEDAALHGAASLAAYATSAEYLPTLAARAIVEIEPEPEVVASFEPLIAKHLELFRFAAALSY”: the protein production entry is listed as “failed”.

For the sequence “MIKSFRHKGLKKFFESGSTAGIQPAHKNRLARQLHQLNVASCPDDMNLPGWGLHLLQGKNPKKQDVDGHYSISVNGNWRLTFYFDHGDAVLVDYQDYH”, the protein production result is “failed”.

As to “MSLRQDILLNNNWNFRFSHQVQGDTRRVDLPHTWNAQDALAGKIDYKRGIGNYEKALYIRPEWKGKRLFLRFDGVNSIADVFINRKHIGEHRGGYGAFIFEITDLVKYGEKNSVLVRANNGEQLDIMPLVGDFNFYGGIYRDVHLLITDETCISPLDYASPGVYLVQEVVSPQEAKVCAKVNLSNRAADGTAELQVLVTDGTKVICKESRNVSLKQGADILEQLPLLIQKPRLWNGCEDPFMYQVSISLHKDGKQIDSVTQPLGLRYYHTDPDKGFFLNGKHLPLHGVCRHQDRAEVGNALRPQHHEEDVALMREMGVNAIRLAHYPQATYMYDLMDKHGIVTWAEIPFVGPGGYADKGFVDQASFRENGKQQLIELIRQHYNHPSICFWGLFNELKEVGDNPVEYVKELNALAKQEDPTRPTTSASNQDGNLNFITENIAWNRYDGWYGSTPKTLATFLDRTHKKHPELRIGISEYGAGASIYHQQDSLKQPSASGWWHPENWQTYYHMENWKIIAERPFVWGTFVWNMFDFGAAHRTEGDRPGINDKGLVTFDRKVRKDAFYFYKANWNKQEPMIYLAEKRCRLRYQPEQTFMAFTTAPEAELFVNGVSCGKQKADTYSTVVWKNVKLTSGENIIRVTTPGKKPLTDEVTVEYKEDREGHHHHHH”, the protein production entry is “not failed”.

In the case of “MKKAKSRIAILGTGGTIAGFIDSTIATTGYAAGAIDIDVLIKAVPQIRDLADISWEQIANIDSSNMCDEIWLRLAKKIAKLFAEGIDGVVITHGTDTMEETAYFLNLTIKSDKPVVLVGAMRPSTAISADGPKNLYNAVALVVNKEAKNKGVMVAINDKILSARGVVKTHSLNVDAFSSPDFGDLGYIVDGKVFFYNNVIKAHTKNAPFDVSKLTSLPKVDILYSYSNDGSGVAAKALFEHGTKGIVVAGSGAGSIHKNQKDVLKELLKKGLKVVVSSRVVAGCVAVSDSDEKLGFISAEDLNPQKARVLLMLALTKTSDPKKIQEYFLKY”, the protein production entry is “not failed”.

Turning to “MPTDYIRNGVLYVTENYLCFESSKSGSSKRNKVIKLVDITDIQKYKVLSVLPGSGMGIAVSTPSTQKPLVFGAMVHRDEAFETILSQYIKITSAAASGGDS”, the protein production entry is reported as “failed”.

For “KAFLEDMKKYAETFLEPWFKAPNKGTFQIVYKSRNNSHVNREEVIRELAGIVCTLNSENKVDLTNPQYTVVVEIIKAVCCLSVVK”, the protein production entry was “not failed”.

“MMLTMGMLERYVLKRTMGALVGALAVLSAMVMLIAFVDIARNVGTRADASFLRLLYLTILQAPATILVLAPFIFLFGTMWAFVELNRRSELIAMRAAGISAWRFIMPAAASSFVIGLLTITLLNPLTTAMTAKFETERDRTMNGYLKEAPKGTWLRQGDDKTQIVIRARARELVDGSVRLRGVSLFVYTLNAKGVMDFTRRIEANEARLEPGFWRLSGVREATPGAGAIRSDSLSIPSNLDDRTASERFNTPQAVALWRLPATIQRTADAGFSAVPFKLRLQQDLATPLLFAAMSVLAAAFSLRLMRLGGLAMLAGSGVALGFGFFFFNELCSTLGRADVLAPFVAAWTPPTVALLVGFTLLCYTEDG”: the protein production result is “failed”.

“MAAGSLLTLLDDIATLLDDVALATKKTAGVLGDDLALNAQQVTGVSADRELPVVWAVAKGSLLNKAILVPAALLISAFAPWAILPLLMIGGAFLCFEGFEKIAHKWLHPEAGEEHDQRKQAATDASVDMVAFEKERIKGAIRTDFILSAEIIVLALGVVSARPFMDQVGVLVIVAVLITVGVYGLVAGIVKLDDLGLHLKRTASSVAQTIGSALLWLAPVLMKVLSIVGTAAMFMVGGGILVHGLPFAHHWADGVTEAASAAVGGLSMIVPTLIDAIAGIIAGAVLVLIVTLVGKVWKAARE”: the protein production result is on record as “not failed”.

In the case of “SLVDGKLVCVTGAGGYIASWIVKLLLERGYTVRGTVRNPTDPKNNHLRELQGAKERLTLHSADLLDYEALCATIDGCDGVFHTASPMTDDPETMLEPAVNGAKFVIDAAAKAKVKRVVFTSSIGAVYMNPNRDTQAIVDENCWSDLDFCKNTKNWYCYGKMLAEQSAWETAKAKGVDLVVLNPVLVLGPPLQSAINASLVHILKYLTGSAKTYANLTQVYVDVRDVALGHVLVYEAPSASGRYILAETALHRGEVVEILAKFFPEYPLPTKCSDEKNPRAKPYKFTTQKIKDLGLEFKPIKQSLYESVKSLQEKGHLPLPQDSNQNEVIIES”, the protein production result was “failed”.

As to “MNQNNHFRLTLSTLLQQCQQDITSLPTAMRAVFSWQRGLNELKTLRRTTKLMMSTMLIVTIIGFILGRDYSLHGWIGLLTGITVVINLILVDQGRLTNYSWGIIACAAWLTTAITNRLIGDIASQSFYLIMQFVGITVWHRKMAAQPDASELTGRKLSKLAGCAWFALAVLVYAIVLHFSKQLNGNQIYLDATLLPLGIVGSVLMVNGYRSQWVAWITLDVINVIIWFNQLKGFSPAAASMLALQLVMLANALYGAYLWFFGQNTQQDKLDTH”, the protein production entry is given as “failed”.

Regarding “MITRNAPRHALLGLILAGSLGTFVALPAVADNAAPAEQGQTTPALGSNLQTLKELDGKAPARRALNIQTWNTAEGARVLFVESRELPMFDMRLTFAAGSSQDQKSPGIALLTNAMLNEGVKGKDVNAIAQGFEGLGADFSNGSYRDMAVTSLRSLSAADKRDPALKLFSEVVGKPTFPADSLARIKNQLIASFKTQKQNPGAIASKELFNHLYGDHPYAHPSEGDAKSINAITLAQLKAFHAKGYAAGNAVIALVGDLSRDEAQAVAAQVSASLPKGPALAKVADPVEPKAGTTHIEFASNQTHLMLAQLGIDRNDPDYAALTVGNSVLGGGGFGSRLMTEVREKRGLTYGVSSGFTAMQVAGPFMIGLQTRAEMSENTLKLVQDIVRDFLANGPTQKEIDDVKRELTGSFPLTAASNSAIVGQLGAIGFYNLPLTYLEDYMAAAQSVTVEQVKAAMSKHLSADKMVIVTVGPTVEQKPLPAPTDKPTRQPVGVPEH”, the protein production entry was “failed”.

For the sequence “MDIFLVIGIITGLLAVVVGMIVKGANVAVLLNPAAAIIIIVGTSAAVMNSFPKNEFTNIPKVFKSLMRGKSKEDPVEIINQIVDMAQETRKNGLLSLEGKIHSIDNEFLKTGLEMVVDGVDPQHIAEVLEMEIESTEERHRGGALIFTTAGGAAPTLGVLGAVVGLIGALGNLNDTEKLGHMIAGAFVATLYGIFFGYVICHPFASRLKRKSLEEINVMRIITEGILDIQSGNNPKSIEKKLIGTLSPKQRQSIQSKGE”, the protein production result is listed as “failed”.

For the origin of these results see a protein production outcome set (Wang et al. 2014).
